According to US20180036405A1:

Key:
[1] = biological target: human dimeric EGFR (EGFR.mFc) (human); assay: SPR 37C, mAb captured by anti-human Fc, EGFR.mFc analyte
[2] = biological target: EGFR on A431 epidermoid carcinoma cells (human) (UniProt P00533); assay: cell-based or functional assay
[3] = biological target: human monomeric EGFR (EGFR.mmh) (human) (UniProt P00533); assay: SPR 37C, mAb captured by anti-human Fc, EGFR.mmh analyte

Row | Kd [1] [nM] | t1/2 [1] [h] | ADCC EC50 [2] [Molar] | IC50 of A431 Proliferation [2] [Molar] | koff [1] [s⁻¹] | kon [1] [M⁻¹ s⁻¹] | Kd [3] [nM] | koff [3] [s⁻¹] | kon [3] [M⁻¹ s⁻¹] | t1/2 [3] [min] | Substance | Maximum Cell Killing (%) [2] [%]
1 | 0.0423 | 3.3 |  |  |  |  |  |  |  |  | Control II: a commercially available fully human monoclonal anti-EGFR antibody designated as ABX-EGF | 
2 | 0.0303 | 1.78 | 1.86e-12 | 3.35e-10 | 0.000108 | 3.55e+06 | 4.68 | 0.00738 | 1.58e+06 | 2 | Control I: a chimeric anti-EGFR antibody with heavy and light chain variable sequences of "mAb 225" as set forth in U.S. Pat. No. 7,060,808 | 24
